US20230235012A1 (ALPINE IMMUNE SCIENCES, published 2023)
Residue numbers refer to the chain shown, from its start. In names and notes the source's numbering stands.

T1: human ICOS (human, UniProt Q9Y6W8 21-199)
T1 construct: whole, on cells
T1 sequence (looked up): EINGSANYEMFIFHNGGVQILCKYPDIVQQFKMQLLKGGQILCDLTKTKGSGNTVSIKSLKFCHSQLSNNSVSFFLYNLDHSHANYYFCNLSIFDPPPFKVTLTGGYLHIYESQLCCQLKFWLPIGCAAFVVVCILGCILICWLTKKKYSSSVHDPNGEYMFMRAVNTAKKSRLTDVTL

B1: ICOSL IgV with N52H/N57Y/Q100R, Fc fusion (Fc fusion)
chain: DTQEKEVRAMVGSDVELSCACPEGSRFDLNDVYVYWQTSESKTVVTYHIPQHSSLEYVDSRYRNRALMSPAGMLRGDFSLRLFNVTPQDEQKFHCLVLSRSLGFQEVLSVEVTLHVAANFSVGGGGSGGGGSEPKSSDKTHTCPPCPAPEAEGAPSVFLFPPKPKDTLMISRTPEVTCVVVDVSHEDPEVKFNWYVDGVEVHNAKTKPREEQYNSTYRVVSVLTVLHQDWLNGKEYKCKVSNKALPAPIEKTISKAKGQPREPQVYTLPPSREEMTKNQVSLTCLVKGFYPSDIAVEWESNGQPENNYKTTPPVLDSDGSFFLYSKLTVDKSRWQQGNVFSCSVMHEALHNHYTQKSLSLSPG
notes: also called ICOSCL IgV with N52H/N57Y/Q100R
B2: ICOSL ECD Truncation #4 with N52H/N57Y/Q100R/F172S, Fc fusion (Fc fusion)
chain: DTQEKEVRAMVGSDVELSCACPEGSRFDLNDVYVYWQTSESKTVVTYHIPQHSSLEYVDSRYRNRALMSPAGMLRGDFSLRLFNVTPQDEQKFHCLVLSRSLGFQEVLSVEVTLHVAANFSVPVVSAPHSPSQDELTFTCTSINGYPRPNVYWINKTDNSLLDQALQNDTVSLNMRGLYDVVSVLRIARTPSVNIGCCIENVLLQQNGGGGSGGGGSEPKSSDKTHTCPPCPAPEAEGAPSVFLFPPKPKDTLMISRTPEVTCVVVDVSHEDPEVKFNWYVDGVEVHNAKTKPREEQYNSTYRVVSVLTVLHQDWLNGKEYKCKVSNKALPAPIEKTISKAKGQPREPQVYTLPPSREEMTKNQVSLTCLVKGFYPSDIAVEWESNGQPENNYKTTPPVLDSDGSFFLYSKLTVDKSRWQQGNVFSCSVMHEALHNHYTQKSLSLSPG
B3: ICOSL ECD Truncation #7 with N52H/N57Y/Q100R/F172S, Fc fusion (Fc fusion)
chain: DTQEKEVRAMVGSDVELSCACPEGSRFDLNDVYVYWQTSESKTVVTYHIPQHSSLEYVDSRYRNRALMSPAGMLRGDFSLRLFNVTPQDEQKFHCLVLSRSLGFQEVLSVEVTLHVAANFSVPVVSAPHSPSQDELTFTCTSINGYPRPNVYWINKTDNSLLDQALQNDTVSLNMRGLYDVVSVLRIARTPSVNIGCCIENGGGGSGGGGSEPKSSDKTHTCPPCPAPEAEGAPSVFLFPPKPKDTLMISRTPEVTCVVVDVSHEDPEVKFNWYVDGVEVHNAKTKPREEQYNSTYRVVSVLTVLHQDWLNGKEYKCKVSNKALPAPIEKTISKAKGQPREPQVYTLPPSREEMTKNQVSLTCLVKGFYPSDIAVEWESNGQPENNYKTTPPVLDSDGSFFLYSKLTVDKSRWQQGNVFSCSVMHEALHNHYTQKSLSLSPG
B4: ICOSL ECD with N52H/N57Y/Q100R/C198R linked to Fc C220S/L234A/L235E/G237A (Table 30D) (Fc fusion)
chain: DTQEKEVRAMVGSDVELSCACPEGSRFDLNDVYVYWQTSESKTVVTYHIPQHSSLEYVDSRYRNRALMSPAGMLRGDFSLRLFNVTPQDEQKFHCLVLSRSLGFQEVLSVEVTLHVAANFSVPVVSAPHSPSQDELTFTCTSINGYPRPNVYWINKTDNSLLDQALQNDTVFLNMRGLYDVVSVLRIARTPSVNIGCRIENVLLQQNLTVGSQTGNDIGERDKITENPVSTGEKNAATEPKSSDKTHTCPPCPAPEAEGAPSVFLFPPKPKDTLMISRTPEVTCVVVDVSHEDPEVKFNWYVDGVEVHNAKTKPREEQYNSTYRVVSVLTVLHQDWLNGKEYKCKVSNKALPAPIEKTISKAKGQPREPQVYTLPPSREEMTKNQVSLTCLVKGFYPSDIAVEWESNGQPENNYKTTPPVLDSDGSFFLYSKLTVDKSRWQQGNVFSCSVMHEALHNHYTQKSLSLSPGK
B5: ICOSL ECD N52H/N57Y/Q100P - AAA - Fc C220S/L234A/L235E/G237A (Fc fusion)
chain: DTQEKEVRAMVGSDVELSCACPEGSRFDLNDVYVYWQTSESKTVVTYHIPQHSSLEYVDSRYRNRALMSPAGMLRGDFSLRLFNVTPQDEQKFHCLVLSPSLGFQEVLSVEVTLHVAANFSVPVVSAPHSPSQDELTFTCTSINGYPRPNVYWINKTDNSLLDQALQNDTVFLNMRGLYDVVSVLRIARTPSVNIGCCIENVLLQQNLTVGSQTGNDIGERDKITENPVSTGEKNAATAAAEPKSSDKTHTCPPCPAPEAEGAPSVFLFPPKPKDTLMISRTPEVTCVVVDVSHEDPEVKFNWYVDGVEVHNAKTKPREEQYNSTYRVVSVLTVLHQDWLNGKEYKCKVSNKALPAPIEKTISKAKGQPREPQVYTLPPSREEMTKNQVSLTCLVKGFYPSDIAVEWESNGQPENNYKTTPPVLDSDGSFFLYSKLTVDKSRWQQGNVFSCSVMHEALHNHYTQKSLSLSPGK
B6: ICOSL ECD N52H/N57Y/Q100R/F172S - AAA - Fc C220S/L234A/L235E/G237A (Fc fusion)
chain: B5 chain with P100R, F172S
B7: ICOSL ECD N52H/N57Y/Q100P - AAA - Fc C220S/E233P/L234V/L235A/G236del/S267K (Fc fusion)
chain: DTQEKEVRAMVGSDVELSCACPEGSRFDLNDVYVYWQTSESKTVVTYHIPQHSSLEYVDSRYRNRALMSPAGMLRGDFSLRLFNVTPQDEQKFHCLVLSPSLGFQEVLSVEVTLHVAANFSVPVVSAPHSPSQDELTFTCTSINGYPRPNVYWINKTDNSLLDQALQNDTVFLNMRGLYDVVSVLRIARTPSVNIGCCIENVLLQQNLTVGSQTGNDIGERDKITENPVSTGEKNAATAAAEPKSSDKTHTCPPCPAPPVAGPSVFLFPPKPKDTLMISRTPEVTCVVVDVKHEDPEVKFNWYVDGVEVHNAKTKPREEQYNSTYRVVSVLTVLHQDWLNGKEYKCKVSNKALPAPIEKTISKAKGQPREPQVYTLPPSREEMTKNQVSLTCLVKGFYPSDIAVEWESNGQPENNYKTTPPVLDSDGSFFLYSKLTVDKSRWQQGNVFSCSVMHEALHNHYTQKSLSLSPGK
B8: ICOSL ECD N52H/N57Y/Q100R/F172S - G4S - Fc C220S/L234A/L235E/G237A (Fc fusion)
chain: DTQEKEVRAMVGSDVELSCACPEGSRFDLNDVYVYWQTSESKTVVTYHIPQHSSLEYVDSRYRNRALMSPAGMLRGDFSLRLFNVTPQDEQKFHCLVLSRSLGFQEVLSVEVTLHVAANFSVPVVSAPHSPSQDELTFTCTSINGYPRPNVYWINKTDNSLLDQALQNDTVSLNMRGLYDVVSVLRIARTPSVNIGCCIENVLLQQNLTVGSQTGNDIGERDKITENPVSTGEKNAATGGGGSEPKSSDKTHTCPPCPAPEAEGAPSVFLFPPKPKDTLMISRTPEVTCVVVDVSHEDPEVKFNWYVDGVEVHNAKTKPREEQYNSTYRVVSVLTVLHQDWLNGKEYKCKVSNKALPAPIEKTISKAKGQPREPQVYTLPPSREEMTKNQVSLTCLVKGFYPSDIAVEWESNGQPENNYKTTPPVLDSDGSFFLYSKLTVDKSRWQQGNVFSCSVMHEALHNHYTQKSLSLSPGK
B9: ICOSL ECD N52H/N57Y/Q100P - G4S - Fc C220S/L234A/L235E/G237A (Fc fusion)
chain: B8 chain with R100P, S172F

Biological target: T2, human CD28 (human, UniProt P10747 19-220)
T2 construct: whole, on cells
Assay: flow cytometry, transfected cells; protein from CHO

| MFI [MFI] | MFI ratio to WT [fold] | Binder |
| --- | --- | --- |
| 84600 | 49 | B1 |
| 68600 | 39.7 | B2 |

Biological target: T1, human ICOS
Assay: as above

| MFI [MFI] | MFI ratio to WT [fold] | Binder |
| --- | --- | --- |
| 118000 | 1.2 | B1 |
| 133000 | 1.3 | B2 |

Biological target: T3, human CTLA-4 (human, UniProt P16410 36-223)
T3 construct: whole, on cells
Assay: as above

T3 sequence (P16410 36-223): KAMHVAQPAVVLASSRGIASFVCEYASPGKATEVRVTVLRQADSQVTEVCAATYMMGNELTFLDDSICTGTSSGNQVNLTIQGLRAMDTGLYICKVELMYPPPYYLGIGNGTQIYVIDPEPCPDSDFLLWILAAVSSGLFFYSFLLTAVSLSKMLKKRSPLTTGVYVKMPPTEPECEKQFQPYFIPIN

| MFI [MFI] | MFI ratio to WT [fold] | Binder |
| --- | --- | --- |
| 205000 | 27 | B1 |
| 377000 | 49.8 | B2 |

Biological target: T2, human CD28
Assay: flow cytometry, transfected cells; protein from 293

| MFI [MFI] | MFI ratio to WT [fold] | Binder |
| --- | --- | --- |
| 12000 | 3.4 | B3 |
| 16600 | 4.7 | B1 |
| 13700 |  | B4 |
| 14700 | 4.1 | B2 |

Biological target: T1, human ICOS
Assay: as above

| MFI [MFI] | MFI ratio to WT [fold] | Binder |
| --- | --- | --- |
| 7600 | 0.7 | B3 |
| 9380 | 0.8 | B1 |
| 16700 |  | B4 |
| 6890 | 0.6 | B2 |

Biological target: T3, human CTLA-4
Assay: as above

| MFI [MFI] | MFI ratio to WT [fold] | Binder |
| --- | --- | --- |
| 9670 | 0.8 | B3 |
| 9670 | 0.8 | B1 |
| 8720 |  | B4 |
| 8840 | 0.7 | B2 |

Biological target: T2, human CD28
Assay: flow cytometry, transfected Expi293 cells

| MFI [MFI] | MFI ratio to WT [fold] | Binder |
| --- | --- | --- |
| 68700 | 13.1 | B5 |
| 65500 | 12.5 | B6 |
| 69600 | 13.3 | B7 |
| 67600 | 12.9 | B8 |
| 69900 | 13.4 | B9 |

Biological target: T1, human ICOS
Assay: flow cytometry, transfected Expi293 cells

| MFI [MFI] | MFI ratio to WT [fold] | Binder |
| --- | --- | --- |
| 97100 | 1.2 | B5 |
| 105000 | 1.3 | B6 |
| 103000 | 1.3 | B7 |
| 107000 | 1.4 | B8 |
| 104000 | 1.3 | B9 |

Biological target: T3, human CTLA-4
Assay: flow cytometry, transfected Expi293 cells

| MFI [MFI] | MFI ratio to WT [fold] | Binder |
| --- | --- | --- |
| 171000 | 18.2 | B5 |
| 194000 | 20.6 | B6 |
| 315000 | 33.5 | B7 |
| 213000 | 22.7 | B8 |
| 161000 | 17.1 | B9 |

Biological target: T2, human CD28
Assay: flow cytometry, transfected cells; protein from CHO
Remark: another data set of the same source

| MFI [MFI] | MFI ratio to WT [fold] | Binder |
| --- | --- | --- |
| 13000 | 3.7 | B3 |
| 17300 | 4.9 | B1 |
| 12900 |  | B4 |
| 12700 | 3.6 | B2 |

Biological target: T1, human ICOS
Assay: as above
Remark: another data set of the same source

| MFI [MFI] | MFI ratio to WT [fold] | Binder |
| --- | --- | --- |
| 8080 | 0.7 | B3 |
| 8670 | 0.7 | B1 |
| 7700 |  | B4 |
| 7610 | 0.7 | B2 |

Biological target: T3, human CTLA-4
Assay: as above
Remark: another data set of the same source

| MFI [MFI] | MFI ratio to WT [fold] | Binder |
| --- | --- | --- |
| 9040 | 0.7 | B3 |
| 9040 | 0.7 | B1 |
| 8750 |  | B4 |
| 9000 | 0.7 | B2 |
